Source: patent US8324344B2, “Membrane transduction peptides and methods of delivering material to a target cell” (STC.UNM, priority 2008, dated 2012)
“Also recorded” adds a separate entry of the source.

Legend:
importin-α = assay: Co-immunoprecipitation assay of TFPI-2 with importin-α from HT-1080 cell lysates; assay type: binding, human; conditions: lysates of TFPI-2-treated (1 μM) HT-1080 cells or HT-1080 cells overexpressing TFPI-2; SK-9 or anti-importin-α antibody (FIG. 5)
Source text: To identify the adapter protein(s) involved in transporting TFPI-2 to the nucleus, we performed co-immunoprecipitation studies using the PROFOUND co-immunoprecipitation kit and cell lysates derived from either vehicle-treated HT-1080 cells, TFPI-2-treated HT-1080 cells or HT-1080 cells overexpressing TFPI-2. Approximately 4.5×10^6 cells from each system were washed twice with PBS, and the lysates prepared in the presence of proteinase inhibitors using the mammalian protein extraction reagent provided in the kit. Complexes of importin-α and TFPI-2 were removed from the lysate by co-immunoprecipitation according to the manufacturer's instructions. In this procedure, antibodies specific for either importin-α or TFPI-2 (SK-9) were covalently linked at room temperature for 16 hours to an amine-reactive gel in coupling buffer (8 mM sodium phosphate/2 mM potassium phosphate/10 mM KCl/140 mM NaCl [pH 7.4]). Cell lysates from the above preparations were added to the antibody-coupled columns and incubated at 4° C. for 18 hours with gentle end-over-end mixing. The columns were then washed several times with coupling buffer containing 0.5 M NaCl to remove non-specifically bound proteins, and finally eluted with the elution buffer provided in the kit. […]

HT-1080 cells [1] = assay: Localization of protein in stably-transfected overexpressing HT-1080 cells, immunoblotting and immunocytochemistry; assay type: cell-based, human; conditions: HT-1080 cells stably transfected with cDNA (FIG. 3, FIG. 4C, 4D)
Experimental: HT-1080 and HEK 293 cell lines were stably transfected to overexpress either wild-type human TFPI-2 or a mutant TFPI-2 construct lacking the carboxy-terminal tail (TFPI-2^1-188), and were maintained as described (Chand et al., Blood, 2004;103:1069-1077, Du et al., Arch. Biochem. Biophys:, 2003;417:96-104). An anti-human TFPI-2 murine monoclonal antibody designated as SK-9 was prepared as described (Du et al., Arch. Biochem. Biophys., 2003;417:96-104) and coupled to Affi-Gel 10 according to the manufacturer's recommendation. Recombinant human TFPI-2 was purified from HEK 293 serum-free conditioned media by a two-step chromatography procedure involving heparin-agarose (Sprecher et al., Proc. Natl. Acad. Sci. USA., 1994;91:3353-3357) and SK-9-AffiGel 10 affinity chromatography. In the latter procedure, heparin-agarose purified TFPI-2 was dialyzed against 50 mM Tris-HCl (pH 7.5) and applied to the SK-9-AffiGel 10 column equilibrated at room temperature with this buffer. After a wash step with 50 mM Tris-HCl (pH 7.5)/0.5 M NaCl, TFPI-2 was eluted with 0.1 M glycine (pH 2.5)/0.5 M NaCl into one-tenth volume of 1 M Tris-HCl (pH 8.8) to immediately neutralize the pH 2.5 glycine. […]

human tumor cell lines = conditions: several tumor cell lines, exogenously offered; Kempaiah and Kisiel 2008; cited from earlier work
HT-1080 cells [2] = assay: Internalization of offered recombinant proteins in HT-1080 cells, immunoblotting of cytosolic and nuclear fractions; assay type: cell-based, human; conditions: 1 μM
Experimental: HT-1080 cells were grown in six-well plates under standard conditions. At confluence, the cells were treated with fresh medium containing either wild-type TFPI-2, TFPI-2^1-188, R24Q KD1, R24K KD1, or R24K KD1-CT as previously described (Kempaiah and Kisiel, Apoptosis, 2008;13:702-715). Briefly, duplicate wells were treated with purified proteins (1 μM final concentration) and incubated at either 37° C. or 4° C. for different time periods. Two wells were also treated with phosphate-buffered saline (PBS) at each temperature to serve as a control. At selected time points, the media was removed and the cells were rinsed once with PBS. The cells were then washed with 1 M NaCl/PBS for 30 minutes with gentle shaking to dissociate cell surface-bound proteins (Iino et al., Arterioscler. Thromb. Vasc. Biol., 1998;18:40-46). Finally, the cells were rinsed once with PBS, trypsinized and harvested for the preparation of cell lysates and cell fractions.
To prepare total cell lysates, 1-3×10^6 cells were lysed by sonication in 500 μl of lysis buffer containing of 125 mM Tris-HCl (pH 6.8), 2% SDS, 10% glycerol, 50 mM sodium phosphate, 1 mM phenylmethanesulphonylfluoride (PMSF) and protease inhibitor cocktail. The lysate was kept on ice for about 10 minutes, centrifuged for 15 minutes at 10,000×g at 4° C., and the supernatant recovered. To prepare nuclear and cytosolic fractions, approximately 2×10^6 cells were harvested and washed twice with cold PBS by centrifugation at 600×g in a Beckman J-6M/E centrifuge for seven minutes at 4° C. Five volumes of ice cold cytosolic buffer (10 mM Hepes pH 7.4, 0.33 M sucrose, 1 mM MgCl2, 0.1% Triton X-100 and protease inhibitor cocktail) was added to the cells and incubated on ice for 15 minutes. The cytosolic fraction was collected by centrifugation at 900×g for five minutes at 4° C. The resulting undissolved pellet was washed twice with cytosolic buffer followed by centrifugation at 900×g for five minutes at 4° C. Finally, the resulting pellet was resuspended in five volumes of ice cold buffer containing 0.45 M NaCl in 10 mM Hepes (pH 7.4) and protease inhibitor cocktail. The suspension was incubated on ice for an additional 15 minutes to dissolve the nucleus, and subsequently centrifuged at 18,000×g for five minutes at 4° C. The resulting supernatant was collected as the nuclear extract. All samples were boiled for three minutes in the presence of 5% SDS and stored at −20° C. until use.
The cell lysate, cytosol and nuclear fractions were subjected to SDS-PAGE using 4-20% polyacrylamide gradient gels. […] The membranes were then probed with specific antibodies dissolved in fresh blocking buffer. Immunoreactive proteins were identified using HRP-conjugated secondary antibodies and a chemiluminescent reagent system essentially as described (Kempaiah et al., Mol. Cancer, 2007;6:20). The integrity of the cytosolic and nuclear fractions was verified using anti-α-tubulin and anti-histone-H1 antibodies, respectively (Guo et al., Am. J Physiol. Cell Physiol., 2007;292:2095-2102).
The relative intensity of the Western blot bands were quantified using QUANTISCAN software (Biosoft, Cambridge, U.K.). The intensities are reported in arbitrary units (A.U.) obtained by subtracting the background value from the corresponding band's mean value.

B1: TFPI-2: Human tissue factor pathway inhibitor-2, a 32 kDa Kunitz-type serine proteinase inhibitor (SEQ ID NO:1), recombinant from HEK 293 (protein, listed as Homo sapiens)
chain: DAAQEPTGNNAEICLLPLDYGPCRALLLRYYYDRYTQSCRQFLYGGCEGNANNFYTWEACDDACWRIEKVPKVCRLQVSVDDQCEGSTEKYFFNLSSMTCEKFFSGGCHRNRIENRFPDEATCMGFCAPKKIPSFCYSPKDEGLCSANVTRYYFNPRYRTCDAFTYTGCGGNDNNFVSREDCKRACAKALKKKKKMPKLRFASRIRKIRKKQF
modifications: tissue factor pathway inhibitor-2
For B1, the “Complex formation with importin-α (co-immunoprecipitation)” value (importin-α) is listed as “complexes of TFPI-2 and importin-α were immunoprecipitated by each antibody; also recorded: formed complexes with importin-α”, the “Localization of overexpressed protein” value (HT-1080 cells [1]) is listed as “cytosolic and nuclear localization of TFPI-2” and the “Induction of caspase-mediated apoptosis” value (human tumor cell lines) is listed as “induce caspase-mediated apoptosis”. The “Amount localized in the nucleus in 60 minutes at 4° C. (temperature dependence)” value (HT-1080 cells [2]; 4° C. versus 37° C. (FIG. 1C)) was “roughly equivalent to that observed in five minutes at 37 °C”, the “Time of maximal cytosolic and nuclear localization” value (HT-1080 cells [2]; 24-72 hours incubation) was 48 h and the “Intracellular distribution of internalized protein” value (HT-1080 cells [2]; 24-72 hours incubation, immunoblot (FIG. 1)) was “internalized and distributed in both the cytosolic and the nuclear fractions”. The “Rate of internalization and translocation to the nucleus” value (HT-1080 cells [2]; 37° C., within the first 15 minutes of offering (FIG. 1A)) was “rapidly internalized by these cells and translocated to the nucleus within minutes of offering; also recorded: rapidly internalized by HT-1080 cells and efficiently translocated to the nucleus”.
